Experimental data reported in patent US20020199213A1 (Kyowa Kirin, published 2002).

T1: Human CD152 Mu-Ig fusion (Ancel # 501-820) (human, UniProt P16410 36-161)
T1 construct: Bought reagent; coated on ELISA plates at 0.2 ug/ml for hybridoma screening; also called CTLA-4; not shown: murine Ig part of the bought fusion, not described
T1 sequence (looked up): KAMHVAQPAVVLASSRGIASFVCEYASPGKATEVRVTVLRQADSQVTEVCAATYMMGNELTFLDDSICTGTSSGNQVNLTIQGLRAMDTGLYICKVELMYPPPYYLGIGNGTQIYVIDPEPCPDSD

B1: 9C4 (antibody, V domains shown)
VH: QVQLVESGGGVVEPGRSLRLSCAASGFTFSSYGMHWVRQAPGKGLEWVAVIWYKSSEKDYADSAKGRFTISRDNSKNTLYLQMNSLRAEDTAVYYCARAGLLGYFDYWGQGTLVTVSS
VL: EIVLTQSPGTLSLSPGERATLSCRASQSLNSYLAWYQQKPGQAPRPLIYGVSSRATGIPDRFSGSGSGTDFTLTISRLEPEDFAVYYCQQYGIYPFTFGPGTKVDIK
B2: 1H5 (antibody, V domains shown)
VH: QLQLQESGPGLVKPSETLSLTCTVSGGSISNSNYYWGWIRQPPGKELEWIGSIYYTGNTYYNPSLKSRVTVSVDTSRNQFSLNLNSVIAADTAVYSCARHGFTISWSLDVWGQGTTVTVSS
VL: AIQLTQSPSSLSASVGDRVTITCRASQGISSALAWYQQKPGKAPKLLIYDASSLESGVPSRFSGSGSGTDFTLTISSLQPEDFATYYCQQFNSYLLTFGGGTKVEIK

Experiments:
[1] = molecular target: CD4:Fc (human) (UniProt P01730); assay: SPR, BIAcore2000, CD4:Fc immobilized by amine coupling, MAb flowed
[2] = molecular target: T1, Human CD152 Mu-Ig fusion (Ancel # …); assay: ELISA of hybridoma supernatant on coated human CD152 mu-Ig fusion (assay taken from paragraph 247; the table does not explain OD)

| Molecule | Ka [1] | koff [1] | kon [1] | OD [2] |
| --- | --- | --- | --- | --- |
| murine anti-CD4 MAb, Leu3a (Pharmingen) (antibody) | 3.1e+10 M⁻¹ | 7.1e-06 s⁻¹ | 220000 M⁻¹ s⁻¹ |  |
| B1 |  |  |  | 1.3 OD |
| B2 |  |  |  | 1.39 OD |
